± gives the standard deviation of the averaged measurements.
Experiment: total protein half-life in vivo (active degradation + dilution); higher = more stable protein
[1] = E. coli NCM3722 delta-clpP delta-lon delta-hslV, growth: N-lim chemostat, doubling time 6 h
[2] = E. coli NCM3722 delta-clpP, growth: N-lim chemostat, doubling time 6 h
[3] = E. coli NCM3722 delta-hslV, growth: N-lim chemostat, doubling time 6 h
[4] = E. coli NCM3722 delta-lon, growth: N-lim chemostat, doubling time 6 h
[5] = E. coli NCM3722 delta-smpB, growth: N-lim chemostat, doubling time 6 h
[6] = wild type E. coli NCM3722, growth: C-lim chemostat, doubling time 3 h
[7] = wild type E. coli NCM3722, growth: C-lim chemostat, doubling time 6 h
[8] = wild type E. coli NCM3722, growth: C-lim chemostat, doubling time 12 h
[9] = wild type E. coli NCM3722, growth: N-lim chemostat, doubling time 6 h
[10] = wild type E. coli NCM3722, growth: N-lim chemostat, doubling time 12 h
[11] = wild type E. coli NCM3722, growth: P-lim chemostat, doubling time 6 h
[12] = wild type E. coli NCM3722, growth: P-lim chemostat, doubling time 12 h

## MIRFAVIGTNWITRQFVEAAHESGKYKLTAVYSRSLEQAQHFANDFSVEHLFTSLEAMAESDAIDAVYIASPNSLHFSQTQLFLSHKINVICEKPLASNLAEVDAAIACARENQVVLFEAFKTACLPNFHLLRQALPKVGKLRKVFFNYCQYSSRYQRYLDGENPNTFNPAFSNGSIMDIGFYCLASAVALFGEPKSVQATASLLASGVDAQGVVVMDYGDFSVTLQHSKVSDSVLASEIQGEAGSLVIEKLSECQKVCFVPRGSQMQDLTQPQHINTMLYEAELFATLVDEHLVDHPGLAVSRITAKLLTEIRRQTGVIFPADSVKL
[1]
  total protein half-life in vivo: 4.844 ± 0.015 h
[2]
  total protein half-life in vivo: 4.33 ± 0.36 h
[3]
  total protein half-life in vivo: 4.29 ± 0.31 h
[4]
  total protein half-life in vivo: 4.616 ± 0.03 h
[5]
  total protein half-life in vivo: 4.18 ± 0.54 h
[6]
  total protein half-life in vivo: 2.56 ± 0.41 h
[7]
  total protein half-life in vivo: 5.28 ± 0.46 h
[8]
  total protein half-life in vivo: 9.44 ± 1.5 h
[9]
  total protein half-life in vivo: 4.08 ± 0.11 h
[10]
  total protein half-life in vivo: 6.53 ± 1.1 h
[11]
  total protein half-life in vivo: 6.55 ± 1 h
[12]
  total protein half-life in vivo: 10.8 ± 0.27 h

## MVTKKQSRVPGRPRRFAPEQAISAAKVLFHQKGFDAVSVAEVTDYLGINPPSLYAAFGSKAGLFSRVLNEYVGTEAIPLADILRDDRPVGECLVEVLKEAARRYSQNGGCAGCMVLEGIHSHDPQARDIAVQYYHAAETTIYDYIARRHPQRAQCVTDFMSTVMSGLSAKAREGHSIEQLCATAAMAGEAIKTILEE
[1]
  total protein half-life in vivo: 4.87 ± 0.78 h
[2]
  total protein half-life in vivo: 4.19 ± 0.7 h
[4]
  total protein half-life in vivo: 5.66 ± 2.6 h
[5]
  total protein half-life in vivo: 2.87 ± 0.24 h
[6]
  total protein half-life in vivo: 2.66 ± 0.17 h
[7]
  total protein half-life in vivo: 4.19 h
[8]
  total protein half-life in vivo: 4.59 ± 4.8 h
[9]
  total protein half-life in vivo: 3.48 ± 0.37 h
[10]
  total protein half-life in vivo: 6.59 ± 0.21 h
[12]
  total protein half-life in vivo: 6.26 h

## MSRRVATITLNPAYDLVGFCPEIERGEVNLVKTTGLHAAGKGINVAKVLKDLGIDVTVGGFLGKDNQDGFQQLFSELGIANRFQVVQGRTRINVKLTEKDGEVTDFNFSGFEVTPADWERFVTDSLSWLGQFDMVCVSGSLPSGVSPEAFTDWMTRLRSQCPCIIFDSSREALVAGLKAAPWLVKPNRRELEIWAGRKLPEMKDVIEAAHALREQGIAHVVISLGAEGALWVNASGEWIAKPPSVDVVSTVGAGDSMVGGLIYGLLMRESSEHTLRLATAVAALAVSQSNVGITDRPQLAAMMARVDLQPFN [P0AEW9]
[1]
  total protein half-life in vivo: 5.41 ± 0.1 h
[2]
  total protein half-life in vivo: 6.29 ± 0.82 h
[3]
  total protein half-life in vivo: 6.11 ± 0.88 h
[4]
  total protein half-life in vivo: 5.57 ± 1.3 h
[5]
  total protein half-life in vivo: 5.34 ± 0.068 h
[6]
  total protein half-life in vivo: 3.11 ± 0.06 h
[7]
  total protein half-life in vivo: 7.05 ± 0.084 h
[8]
  total protein half-life in vivo: 12.2 ± 0.77 h
[9]
  total protein half-life in vivo: 5.61 ± 0.2 h
[10]
  total protein half-life in vivo: 10.74 ± 0.098 h
[11]
  total protein half-life in vivo: 6.22 ± 0.24 h
[12]
  total protein half-life in vivo: 13.5 ± 2.4 h

## MKKISLPKIGIRPVIDGRRMGVRESLEEQTMNMAKATAALLTEKLRHACGAAVECVISDTCIAGMAEAAACEEKFSSQNVGLTITVTPCWCYGSETIDMDPTRPKAIWGFNGTERPGAVYLAAALAAHSQKGIPAFSIYGHDVQDADDTSIPADVEEKLLRFARAGLAVASMKGKSYLSLGGVSMGIAGSIVDHNFFESWLGMKVQAVDMTELRRRIDQKIYDEAELEMALAWADKNFRYGEDENNKQYQRNAEQSRAVLRESLLMAMCIRDMMQGNSKLADIGRVEESLGYNAIAAGFQGQRHWTDQYPNGDTAEAILNSSFDWNGVREPFVVATENDSLNGVAMLMGHQLTGTAQVFADVRTYWSPEAIERVTGHKLDGLAEHGIIHLINSGSAALDGSCKQRDSEGNPTMKPHWEISQQEADACLAATEWCPAIHEYFRGGGYSSRFLTEGGVPFTMTRVNIIKGLGPVLQIAEGWSVELPKDVHDILNKRTNSTWPTTWFAPRLTGKGPFTDVYSVMANWGANHGVLTIGHVGADFITLASMLRIPVCMHNVEETKVYRPSAWAAHGMDIEGQDYRACQNYGPLYKR
[1]
  total protein half-life in vivo: 4.26 ± 0.39 h
[2]
  total protein half-life in vivo: 4.38 h
[4]
  total protein half-life in vivo: 3.06 h
[5]
  total protein half-life in vivo: 3.21 h
[6]
  total protein half-life in vivo: 3.42 ± 0.12 h
[7]
  total protein half-life in vivo: 5.12 ± 0.1 h
[8]
  total protein half-life in vivo: 9.64 ± 0.84 h
[9]
  total protein half-life in vivo: 2.78 ± 0.2 h
[11]
  total protein half-life in vivo: 5.22 ± 0.62 h
[12]
  total protein half-life in vivo: 10.9 ± 1.1 h

## MNNKGSGLTPAQALDKLDALYEQSVVALRNAIGNYITSGELPDENARKQGLFVYPSLTVTWDGSTTNPPKTRAFGRFTHAGSYTTTITRPTLFRSYLNEQLTLLYQDYGAHISVQPSQHEIPYPYVIDGSELTLDRSMSAGLTRYFPTTELAQIGDETADGIYHPTEFSPLSHFDARRVDFSLARLRHYTGTPVEHFQPFVLFTNYTRYVDEFVRWGCSQILDPDSPYIALSCAGGNWITAETEAPEEAISDLAWKKHQMPAWHLITADGQGITLVNIGVGPSNAKTICDHLAVLRPDVWLMIGHCGGLRESQAIGDYVLAHAYLRDDHVLDAVLPPDIPIPSIAEVQRALYDATKLVSGRPGEEVKQRLRTGTVVTTDDRNWELRYSASALRFNLSRAVAIDMESATIAAQGYRFRVPYGTLLCVSDKPLHGEIKLPGQANRFYEGAISEHLQIGIRAIDLLRAEGDRLHSRKLRTFNEPPFR [P0AE12]
[1]
  total protein half-life in vivo: 6.26 ± 1.5 h
[2]
  total protein half-life in vivo: 5.49 ± 1 h
[3]
  total protein half-life in vivo: 5.31 ± 0.55 h
[4]
  total protein half-life in vivo: 4.76 ± 0.66 h
[5]
  total protein half-life in vivo: 4.37 ± 0.083 h
[6]
  total protein half-life in vivo: 3.24 ± 0.42 h
[7]
  total protein half-life in vivo: 6.34 ± 0.73 h
[8]
  total protein half-life in vivo: 10.6 ± 0.36 h
[9]
  total protein half-life in vivo: 4.51 ± 0.26 h
[10]
  total protein half-life in vivo: 8.24 ± 1.3 h
[11]
  total protein half-life in vivo: 6.19 ± 0.32 h

## MKIDLNADLGEGCASDAELLTLVSSANIACGFHAGDAQIMQACVREAIKNGVAIGAHPSFPDRENFGRSAMQLPPETVYAQTLYQIGALATIARAQGGVMRHVKPHGMLYNQAAKEAQLADAIARAVYACDPALILVGLAGSELIRAGKQYGLTTREEVFADRGYQADGSLVPRSQSGALIENEEQALAQTLEMVQHGRVKSITGEWATVAAQTVCLHGDGEHALAFARRLRSAFAEKGIVVAA
[1]
  total protein half-life in vivo: 5 ± 0.5 h
[3]
  total protein half-life in vivo: 3.66 h
[4]
  total protein half-life in vivo: 5.55 ± 2 h
[5]
  total protein half-life in vivo: 3.12 ± 0.19 h
[6]
  total protein half-life in vivo: 2.4 ± 0.35 h
[8]
  total protein half-life in vivo: 7.69 ± 0.61 h
[9]
  total protein half-life in vivo: 3.911 ± 0.035 h
[10]
  total protein half-life in vivo: 5.79 ± 0.9 h
[11]
  total protein half-life in vivo: 4.55 ± 0.18 h
[12]
  total protein half-life in vivo: 7.81 ± 1.7 h

## MTWFIDRRLNGKNKSMVNRQRFLRRYKAQIKQSISEAINKRSVTDVDSGESVSIPTEDISEPMFHQGRGGLRHRVHPGNDHFVQNDRIERPQGGGGGSGSGQGQASQDGEGQDEFVFQISKDEYLDLLFEDLALPNLKQNQQRQLTEYKTHRAGYTANGVPANISVVRSLQNSLARRTAMTAGKRRELHALEENLAIISNSEPAQLLEEERLRKEIAELRAKIERVPFIDTFDLRYKNYEKRPDPSSQAVMFCLMDVSGSMDQSTKDMAKRFYILLYLFLSRTYKNVEVVYIRHHTQAKEVDEHEFFYSQETGGTIVSSALKLMDEVVKERYNPAQWNIYAAQASDGDNWADDSPLCHEILAKKLLPVVRYYSYIEITRRAHQTLWREYEHLQSTFDNFAMQHIRDQDDIYPVFRELFHKQNATAKG
[1]
  total protein half-life in vivo: 2.93 ± 0.22 h
[2]
  total protein half-life in vivo: 2.2 ± 0.052 h
[3]
  total protein half-life in vivo: 1.52 ± 0.018 h
[4]
  total protein half-life in vivo: 1.525 ± 0.004 h
[5]
  total protein half-life in vivo: 1.49 ± 0.047 h
[6]
  total protein half-life in vivo: 1.37 ± 0.082 h
[7]
  total protein half-life in vivo: 1.6 ± 0.063 h
[8]
  total protein half-life in vivo: 1.95 ± 0.46 h
[9]
  total protein half-life in vivo: 1.47 ± 0.039 h
[10]
  total protein half-life in vivo: 1.64 ± 0.027 h
[11]
  total protein half-life in vivo: 1.98 ± 0.3 h
[12]
  total protein half-life in vivo: 3.11 ± 0.88 h
